Target: T1, host PD-1-Fc fusion protein ( ('host'; the dolphin PD-1 of …)
T1 chain: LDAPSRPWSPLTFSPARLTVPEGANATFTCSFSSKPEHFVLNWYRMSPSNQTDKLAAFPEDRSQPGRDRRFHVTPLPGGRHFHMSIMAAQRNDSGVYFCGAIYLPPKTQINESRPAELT
Test: SPR; Biacore T200, 25°C; PD-1-Fc amine-coupled to a CM4 chip (acetate buffer pH 6.5); De2-Fc or PD-L1-Fc as analytes at 0-400 nM in PBS with 0.05% Tween, 30 µL/min; 1:1 Langmuir model
Details: both partners purified

B1: host PD-L1-Fc fusion protein (Fc fusion)
chain: FTITVPKDLYVVEYGSNVTLECRFPVDKQLNLLALVVYWEMEDKKIIQFVNGEEDLNVQHSSYNQRALLLKNQLPLGKAALQITDVKLQDAGIYCCLISYGGADYKRITLKVNASYRKINQTISVDPVTSEHELMCQAEGYPEAEVIWTSSDHRVLSGKTTITSSKREEKLFNVTSTLRINTTANEIFYCIFRRLGHEENSTAELV
  Kd: 6.2 nM

Source: paper PMC9514091, “Discovery of the first PD-1 ligand encoded by a pathogen” (Frontiers in Immunology, 2022)
